Experiment [1] has as its target cyno CD21 protein (cynomolgus monkey). Description: SPR (Biacore). Background: SPR reads the build-up and loss of mass on a sensor chip optically.
For experiment [2] the target is unchanged. Briefly: SPR (Biacore). This is another data set of the same source.
Experiment [3] has as its target T1, human CD21 protein (human, UniProt P20023 21-971, limits assumed).
T1 construct: the Biacore set-up is not described; also called huCD21; CR2
T1 sequence (looked up): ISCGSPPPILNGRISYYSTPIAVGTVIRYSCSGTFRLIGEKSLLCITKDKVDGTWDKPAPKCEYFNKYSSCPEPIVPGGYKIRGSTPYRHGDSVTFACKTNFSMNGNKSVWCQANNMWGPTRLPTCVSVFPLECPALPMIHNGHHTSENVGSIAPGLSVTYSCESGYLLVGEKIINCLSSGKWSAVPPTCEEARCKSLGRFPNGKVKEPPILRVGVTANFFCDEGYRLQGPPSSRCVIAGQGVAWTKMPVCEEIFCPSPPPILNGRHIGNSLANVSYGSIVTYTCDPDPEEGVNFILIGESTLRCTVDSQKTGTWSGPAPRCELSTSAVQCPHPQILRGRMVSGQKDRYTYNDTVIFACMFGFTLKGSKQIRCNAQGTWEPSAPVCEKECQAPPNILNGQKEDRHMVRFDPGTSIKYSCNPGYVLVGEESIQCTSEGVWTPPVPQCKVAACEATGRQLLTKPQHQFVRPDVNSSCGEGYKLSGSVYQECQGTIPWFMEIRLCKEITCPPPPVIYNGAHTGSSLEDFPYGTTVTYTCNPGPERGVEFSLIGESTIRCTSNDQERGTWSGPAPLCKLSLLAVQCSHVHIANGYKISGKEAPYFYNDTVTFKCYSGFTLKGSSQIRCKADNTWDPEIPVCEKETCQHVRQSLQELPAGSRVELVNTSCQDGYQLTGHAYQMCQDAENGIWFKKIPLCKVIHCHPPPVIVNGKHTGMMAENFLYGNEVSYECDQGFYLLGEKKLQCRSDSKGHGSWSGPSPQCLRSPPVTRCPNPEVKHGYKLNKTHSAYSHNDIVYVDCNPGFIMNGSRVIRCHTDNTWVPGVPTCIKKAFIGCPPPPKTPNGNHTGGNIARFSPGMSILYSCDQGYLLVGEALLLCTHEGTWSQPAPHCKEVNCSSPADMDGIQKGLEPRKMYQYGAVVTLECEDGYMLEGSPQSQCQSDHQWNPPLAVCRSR
Briefly: SPR (Biacore).

In experiment [4] the target is T1, human CD21 protein. Briefly: SPR (Biacore). The source holds these as a separate data set.
Experiment [5] concerns the target cyno CD21 protein (cynomolgus monkey). Description: SPR (Biacore), KD against Ab89.
For experiment [6], the target named is T2, human CD21 on Raji B cells or primary B cells (human, UniProt P20023 21-1033).
T2 sequence (looked up): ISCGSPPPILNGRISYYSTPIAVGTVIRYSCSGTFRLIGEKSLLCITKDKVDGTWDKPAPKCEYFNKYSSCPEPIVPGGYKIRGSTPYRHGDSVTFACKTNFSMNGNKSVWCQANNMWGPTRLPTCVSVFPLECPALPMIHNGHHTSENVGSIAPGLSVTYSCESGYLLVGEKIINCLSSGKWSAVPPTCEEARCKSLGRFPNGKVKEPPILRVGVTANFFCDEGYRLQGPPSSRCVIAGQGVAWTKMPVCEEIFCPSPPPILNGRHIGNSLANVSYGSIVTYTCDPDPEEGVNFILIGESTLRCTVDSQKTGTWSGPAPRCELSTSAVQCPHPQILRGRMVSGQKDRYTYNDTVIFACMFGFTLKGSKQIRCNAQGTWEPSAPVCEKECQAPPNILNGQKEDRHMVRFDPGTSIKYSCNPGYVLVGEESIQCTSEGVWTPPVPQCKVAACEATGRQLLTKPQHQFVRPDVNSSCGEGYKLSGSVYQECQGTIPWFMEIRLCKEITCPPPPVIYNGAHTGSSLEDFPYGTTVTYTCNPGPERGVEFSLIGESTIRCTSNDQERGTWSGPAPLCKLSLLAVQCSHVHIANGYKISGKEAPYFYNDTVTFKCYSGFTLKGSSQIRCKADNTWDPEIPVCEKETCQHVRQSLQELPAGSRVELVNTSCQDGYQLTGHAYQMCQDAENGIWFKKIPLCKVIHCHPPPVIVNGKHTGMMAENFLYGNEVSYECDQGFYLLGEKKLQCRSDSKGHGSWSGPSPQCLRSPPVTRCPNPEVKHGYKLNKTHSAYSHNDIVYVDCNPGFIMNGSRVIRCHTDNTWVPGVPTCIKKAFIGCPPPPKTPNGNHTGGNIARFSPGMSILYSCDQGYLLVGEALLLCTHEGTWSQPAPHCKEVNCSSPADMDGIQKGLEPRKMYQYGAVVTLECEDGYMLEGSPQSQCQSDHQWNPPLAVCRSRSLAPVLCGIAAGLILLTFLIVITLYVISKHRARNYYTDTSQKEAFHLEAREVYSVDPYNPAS
Briefly: cell-based or functional assay.

Experiment [7] has as its target T2, human CD21 on Raji B cells or primary B …. Description: cell-based or functional assay. This is another data set of the same source.
Experiment [8] has as its target T1, human CD21 protein. Description: SPR (Biacore), KD against Ab89.
The target of experiment [9] is cyno CD21 protein (cynomolgus monkey). Briefly: affinity KD; method not restated (Biacore elsewhere).
For experiment [10], the target named is T1, human CD21 protein. The experiment is described as above.
Experiment [11] deals with insulin (UniProt P01308). Briefly: polyreactivity ELISA on coated insulin; third number of the cell.
Sequence of insulin (P01308 25-54 limits assumed, chain 1 of 2): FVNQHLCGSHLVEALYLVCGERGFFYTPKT
Sequence of insulin (P01308 90-110 limits assumed, chain 2 of 2): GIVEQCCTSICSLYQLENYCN
For experiment [12], the target named is T1, human CD21 protein. Briefly: SPR (Biacore). This is another data set of the same source.
For experiment [13], the target named is T2, human CD21 on Raji B cells or primary B …. Description: Raji B cell binding.
For experiment [14] the target is unchanged. Description: competition with human C3d on Raji B cells.
Experiment [15] shares this target. Briefly: competition with human C3d on primary B cells.

Where two headings read alike, the source gives them in different places.

B1: Ab423 (antibody, human IgG1, kappa, V domains shown)
VH: QVQLVQSGAEVKKPGSSVKVSCKASGGTFSSYAISWVRQAPGQGLEWMGRIIPILGIANYAQKFQGRVTITADKSTSTAYMELSSLRSEDTAVYYCAREDDISGYYQDWGQGTLVTVSS
VL: EIVMTQSPATLSVSPGERATLSCRAGQSINSYLAWYQQKPGQAPRLLIYDASTRATGIPARFSGSGSGTEFTLTISSLQSEDFAVYYCQQYEYWYTFGQGTKLEIKR
notes: IgG1
What is called Kd is the constant that tells how readily two partners part at equilibrium. As to B1, the Kd in experiment [1] amounted to 0.233 nM; in experiment [2], 0.23 nM; in experiment [3], 0.0399 nM; in [4] it was 0.039 nM; in experiment [9], 0.23 nM; in experiment [10] it was 0.039 nM. Also, the fold affinity improvement over parental Ab89 in [5] is 92 fold; in experiment [8] it was 1780 fold. Besides, the “pAKT inhibition, IC50, nM; Primary B cells” value in experiment [6] and in experiment [7] was 7.94 nM in each case. The “pAKT inhibition, IC50, nM; Raji B cells” value in experiment [6] and in experiment [7] was 14.9 nM in each case. Further, in experiment [11], the insulin-binding score (ratio to buffer well) was 2.

B2: Ab89 (antibody, human IgG1, kappa, V domains shown)
VH: QVQLVQSGAEVKKPGSSVKVSCKASGGTFSSYAISWVRQAPGQGLEWMGRIIPILGIANYAQKFQGRVTITADKSTSTAYMELSSLRSEDTAVYYCAREDDSSGYYQDWGQGTLVTVSS
VL: EIVMTQSPATLSVSPGERATLSCRAGQSINSHLAWYQQKPGQAPRLLIYDASTRATGIPARFSGSGSGTEFTLTISSLQSEDFAVYYCQQYEYWYTFGQGTKLEIKR
notes: IgG1; also called germlined derivative of Ab15
The term EC50 denotes the midpoint of the concentration-response curve. Read a low EC50 as a more potent agent. Broadly, the IC50 is the concentration that gives 50% inhibition. A higher IC50 goes with weaker potency. With B2, the Kd is 21.4 nM in experiment [1] and 71.1 nM in [12]. Further, in experiment [13], the EC50 was found to be 6.37 nM. Further, the IC50 in experiment [14] is 2.13 nM; in [15], 1.22 nM.

(Values after patent publication US20240376225A1 (CHILDREN S MEDICAL CENTER, published 2024).)
